T1: formiminotransferase cyclodeaminase (FTCD), bacterially expressed and purified (rat, UniProt O88618 1-541)
T1 sequence (looked up): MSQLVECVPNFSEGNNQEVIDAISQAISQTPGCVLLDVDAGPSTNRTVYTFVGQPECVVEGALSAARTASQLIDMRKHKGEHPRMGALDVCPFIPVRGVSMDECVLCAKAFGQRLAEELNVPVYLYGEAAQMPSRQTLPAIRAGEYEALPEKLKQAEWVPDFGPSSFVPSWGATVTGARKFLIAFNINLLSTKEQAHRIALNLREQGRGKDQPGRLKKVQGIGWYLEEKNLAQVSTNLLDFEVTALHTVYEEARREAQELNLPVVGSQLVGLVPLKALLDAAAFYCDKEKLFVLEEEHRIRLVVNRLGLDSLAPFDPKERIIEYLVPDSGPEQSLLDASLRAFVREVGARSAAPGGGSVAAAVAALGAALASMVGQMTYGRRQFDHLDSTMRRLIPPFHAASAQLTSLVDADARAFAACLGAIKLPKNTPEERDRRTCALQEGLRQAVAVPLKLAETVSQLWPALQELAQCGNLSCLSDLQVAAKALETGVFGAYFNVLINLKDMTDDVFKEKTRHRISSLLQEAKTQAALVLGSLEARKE

B1: recombinant mouse vimentin, bacterially expressed and purified (natural protein)
chain: not shown
B2: 35S-radiolabeled FTCD generated in vitro by coupled transcription/translation (enzyme, UniProt O88618 1-541, looked up)
chain: MSQLVECVPNFSEGNNQEVIDAISQAISQTPGCVLLDVDAGPSTNRTVYTFVGQPECVVEGALSAARTASQLIDMRKHKGEHPRMGALDVCPFIPVRGVSMDECVLCAKAFGQRLAEELNVPVYLYGEAAQMPSRQTLPAIRAGEYEALPEKLKQAEWVPDFGPSSFVPSWGATVTGARKFLIAFNINLLSTKEQAHRIALNLREQGRGKDQPGRLKKVQGIGWYLEEKNLAQVSTNLLDFEVTALHTVYEEARREAQELNLPVVGSQLVGLVPLKALLDAAAFYCDKEKLFVLEEEHRIRLVVNRLGLDSLAPFDPKERIIEYLVPDSGPEQSLLDASLRAFVREVGARSAAPGGGSVAAAVAALGAALASMVGQMTYGRRQFDHLDSTMRRLIPPFHAASAQLTSLVDADARAFAACLGAIKLPKNTPEERDRRTCALQEGLRQAVAVPLKLAETVSQLWPALQELAQCGNLSCLSDLQVAAKALETGVFGAYFNVLINLKDMTDDVFKEKTRHRISSLLQEAKTQAALVLGSLEARKE
modifications: [35S]methionine and [35S]cysteine label

Key:
[1] = biological target: T1, formiminotransferase cyclodeaminase …; test: co-sedimentation
[2] = biological target: T1, formiminotransferase cyclodeaminase …; test: far-Western, overlay or dot blot
[3] = biological target: B1; test: far-Western, overlay or dot blot

Binder	binding result [1]	fold bound relative to BSA [2] [fold]	fold bound relative to BSA [3] [fold]
B1	binds		
B2		~6	~10

Source: paper PMC2198822 (The Journal of Cell Biology, 2001)
